In article PMC8828050, “Covalent inhibition of endoplasmic reticulum chaperone GRP78 disconnects the transduction of ER stress signals to inflammation and lipid accumulation in diet-induced obese mice” (eLife, 2022) one finds Kd data, which are given here for 1 molecule.

Assay [1] concerns the target T1, Recombinant 6xHis-tagged human GRP78 protein, biotinylated (human, UniProt P11021 19-654, biotin (EZ-Link Sulfo-NHS-Biotin)).
T1 construct: 78 kDa glucose-regulated protein (GRP78), human, recombinant from Abcam; Captured on the streptavidin chip through the biotin; No Abcam catalogue number is printed; also called 78 kDa glucose-regulated protein; biotinylated GRP78; source: bought: Abcam
In words: SPR; biotinylated GRP78 captured on streptavidin Sensor Chip SA; peptide 2.5 nM to 320 μM flowed at 30 μl/min, 25°C; 10 mM HEPES, 150 mM NaCl, 3 mM EDTA, 0.005% Tween-20, pH 7.4; steady-state analysis, 1:1 model; Biacore X100; average of four runs. As to conditions: both partners purified.

Assay [2] addresses T2, Recombinant 6xHis-tagged human GRP78 protein, biotinylated, saturated with 10 μM celastrol (human, UniProt P11021 19-654, biotin (EZ-Link Sulfo-NHS-Biotin); celastrol covalently bound to Cys41 (mapped on recombinant mouse GRP78)).
T2 construct: 78 kDa glucose-regulated protein (GRP78), human, recombinant from Abcam; Same protein as m2, after saturation with celastrol; The covalent site Cys41 was mapped by LC-MS/MS on mouse GRP78 made in E. coli, not on the human protein on the chip; also called celastrol–GRP78 conjugate; GRP78-coated Sensor Chip saturated by celastrol; source: bought: Abcam; saturated on the chip with 10 μM celastrol
In words: SPR; as a1, but the GRP78 chip was saturated with 10 μM celastrol before the peptide; peptide 1.56 to 100 μM; steady-state analysis, 1:1 model; n = 4. As to conditions: both partners purified.

T2 sequence (P11021 19-654): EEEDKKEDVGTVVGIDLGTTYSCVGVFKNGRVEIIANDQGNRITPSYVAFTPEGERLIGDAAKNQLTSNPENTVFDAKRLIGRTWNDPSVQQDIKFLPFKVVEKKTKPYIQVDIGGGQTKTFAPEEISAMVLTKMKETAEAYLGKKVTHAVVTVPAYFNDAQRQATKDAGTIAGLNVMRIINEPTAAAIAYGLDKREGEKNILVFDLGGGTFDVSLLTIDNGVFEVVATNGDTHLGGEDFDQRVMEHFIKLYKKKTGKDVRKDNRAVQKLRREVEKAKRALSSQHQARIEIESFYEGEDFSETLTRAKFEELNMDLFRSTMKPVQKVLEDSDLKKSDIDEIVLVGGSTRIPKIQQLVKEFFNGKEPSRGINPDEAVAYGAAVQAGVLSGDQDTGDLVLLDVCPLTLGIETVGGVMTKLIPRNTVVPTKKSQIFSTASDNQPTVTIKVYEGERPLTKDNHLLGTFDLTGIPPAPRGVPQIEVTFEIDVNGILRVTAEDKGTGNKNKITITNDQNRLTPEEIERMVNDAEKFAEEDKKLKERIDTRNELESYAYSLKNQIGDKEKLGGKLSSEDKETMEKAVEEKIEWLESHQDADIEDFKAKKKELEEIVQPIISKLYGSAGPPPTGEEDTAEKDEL
T1 sequence (P11021 19-654): as above

B1: synthetic GRP78-targeting peptide WDLAWMFRLPVG (peptide)
peptide: WDLAWMFRLPVG
notes: synthetic GRP78-targeting peptide, as described in Arap et al., 2004; That it is not a natural stretch is surmised; also called synthetic peptide; source: synthetic peptide (GL Biochem Ltd, Shanghai)
One may read the Kd as a measure of binding affinity in units of concentration. As to B1, the Kd in assay [1] amounted to 17.7 nM; in assay [2], 2230 nM.
